{"source": "patent US20190071505A1", "about": "(UNIVERSITY OF NORTH TEXAS HEALTH SCIENCE CENTER, published 2019)", "binders": {"B1": {"name": "Lectin-like transcript 1 (LLT1) (ligand)", "chain": "MHDSNNVEKDITPSELPANPGCLHSKEHSIKATLIWRLFFLIMFLTIIVCGMVAALSAIRANCHQEPSVCLQAACPESWIGFQRKCFYFSDDTKNWTSSQRFCDSQDADLAQVESFQELNFLLRYKGPSDHWIGLSREQGQPWKWINGTEWTRQFPILGAGECAYLNDKGASSARHYTERKWICSKSDIHV"}, "B2": {"name": "mouse anti-human LLT1 mAb (clone #2E5) (antibody, V domains shown)", "VH": "EVQLQQSGADLVKPGASVKLSCTASGFNIKDTYMHWVIQRPEQGLDWIGRIDPANGNTNYDPKFRAKATITADTSSNTAYLQLSSLTSDDTAVYYCAGMDYHFDFWGQGTTLTVSS", "VL": "DIVMTQSPATLSVTPGDRVSLSCRASQSISDYLHWYQQKSHESPRLLIKYASQSISGIPSRFSGSGSGSDFTLSINSVEPEDVGVFYCQNGHSFPLTFGAGTKLELRR", "notes": "Mouse monoclonal antibody from hybridoma 2E5; It was detected with a PE-conjugated goat anti-mouse IgG secondary antibody; also called 2E5 mAb"}}, "key": {"[1]": {"target": "T1, NK cell inhibitory receptor NKRP1A (CD161) (human, UniProt Q12918 1-225)", "T1 sequence (looked up)": "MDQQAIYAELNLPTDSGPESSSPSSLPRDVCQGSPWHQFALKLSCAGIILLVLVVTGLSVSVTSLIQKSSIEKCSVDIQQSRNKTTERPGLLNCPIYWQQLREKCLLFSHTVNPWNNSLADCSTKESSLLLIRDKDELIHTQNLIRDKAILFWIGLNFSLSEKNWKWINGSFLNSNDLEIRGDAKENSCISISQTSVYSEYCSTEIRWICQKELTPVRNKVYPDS", "test": "cell-based or functional assay"}, "[2]": {"target": "B1", "test": "flow cytometry on DU145 cells (endogenous LLT1), PE goat anti-mouse IgG secondary, ratio to mIgG1 isotype control; clone taken from the FIG. 2 legend"}, "[3]": {"target": "B1", "test": "flow cytometry on 22Rv1 cells (endogenous LLT1), PE goat anti-mouse IgG secondary, ratio to mIgG1 isotype control; clone taken from the FIG. 2 legend"}}, "data": [{"binder": "B1", "values": [{"measurement": "percent of MDA-MB-436 LLT1 siRNA-transfected cells killed by NK cells, 5:1 E:T ratio (51Cr release)", "setting": "[1]", "result": 21.8, "unit": "%"}, {"measurement": "percent of MDA-MB-436 LLT1 siRNA-transfected cells killed by NK cells, 25:1 E:T ratio (51Cr release)", "setting": "[1]", "result": 63.4, "unit": "%"}, {"measurement": "percent of MDA-MB-436 scramble siRNA-transfected cells killed by NK cells, 5:1 E:T ratio (51Cr release)", "setting": "[1]", "result": 18.9, "unit": "%"}, {"measurement": "percent of MDA-MB-436 scramble siRNA-transfected cells killed by NK cells, 25:1 E:T ratio (51Cr release)", "setting": "[1]", "result": 42.2, "unit": "%"}]}, {"binder": "B2", "values": [{"measurement": "MFIR (mean fluorescence intensity ratio)", "setting": "[2]", "result": 12}, {"measurement": "MFIR (mean fluorescence intensity ratio)", "setting": "[3]", "result": 14.4}]}]}
